Source: publication PMC3416868, “The Fission Yeast GATA Factor, Gaf1, Modulates Sexual Development via Direct Down-Regulation of ste11+ Expression in Response to Nitrogen Starvation”
Where a chain is given by its changes, count along the chain named.

Tests used:
[1] = biological target: T1, GST-Gaf1 (Schizosaccharomyces pombe (972?)) (UniProt Q10280); test: competition; details: 10 mM Tris pH 7.5, 2 mM MgCl2, 50 mM NaCl, 1 mM DTT, 5% glycerol, 2 ug poly(dI-dC) in 20 ul, room temperature, 20 min; 6% native PAGE
T1 sequence: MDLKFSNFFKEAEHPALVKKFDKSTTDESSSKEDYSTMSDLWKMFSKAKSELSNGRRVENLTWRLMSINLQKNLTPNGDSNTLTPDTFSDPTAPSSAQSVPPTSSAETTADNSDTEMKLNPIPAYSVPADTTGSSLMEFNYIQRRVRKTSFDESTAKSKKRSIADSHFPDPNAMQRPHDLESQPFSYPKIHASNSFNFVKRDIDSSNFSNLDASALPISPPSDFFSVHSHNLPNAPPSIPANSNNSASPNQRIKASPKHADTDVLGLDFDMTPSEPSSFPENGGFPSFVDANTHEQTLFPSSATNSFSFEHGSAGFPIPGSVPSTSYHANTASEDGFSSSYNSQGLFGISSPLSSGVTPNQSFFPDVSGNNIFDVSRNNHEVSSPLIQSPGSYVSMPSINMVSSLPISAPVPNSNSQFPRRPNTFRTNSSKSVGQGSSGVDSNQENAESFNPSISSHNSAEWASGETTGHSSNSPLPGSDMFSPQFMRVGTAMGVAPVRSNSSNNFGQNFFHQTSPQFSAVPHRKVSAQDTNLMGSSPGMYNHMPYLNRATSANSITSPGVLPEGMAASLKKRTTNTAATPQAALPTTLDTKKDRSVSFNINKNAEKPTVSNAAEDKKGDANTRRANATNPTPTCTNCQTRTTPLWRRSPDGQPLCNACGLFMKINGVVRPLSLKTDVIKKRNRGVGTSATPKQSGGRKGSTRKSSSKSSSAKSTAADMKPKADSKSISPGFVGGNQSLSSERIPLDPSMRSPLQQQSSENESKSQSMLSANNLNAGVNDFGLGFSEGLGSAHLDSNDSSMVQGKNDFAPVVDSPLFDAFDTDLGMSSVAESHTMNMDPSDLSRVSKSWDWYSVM

GST-Gaf1 [2] = biological target: T2, GST-Gaf1 (Schizosaccharomyces pombe, UniProt Q10280 1-855); test: competition; cold PW, 100-fold, against labeled PA; 10 mM Tris pH 7.5, 2 mM MgCl2, 50 mM NaCl, 1 mM DTT, 5% glycerol, 2 ug poly(dI-dC) in 20 ul, room temperature, 20 min; 6% native PAGE; details: protein: recombinant; tags: N-terminal GST (pGEX4T3); label: 32P 5'-end (probe); blunt
T2 sequence: T1 sequence

GST-Gaf1 [3] = biological target: T2, GST-Gaf1; test: competition; cold PM, 100-fold, against labeled PA; 10 mM Tris pH 7.5, 2 mM MgCl2, 50 mM NaCl, 1 mM DTT, 5% glycerol, 2 ug poly(dI-dC) in 20 ul, room temperature, 20 min; 6% native PAGE; details: protein: recombinant; tags: N-terminal GST (pGEX4T3); label: 32P 5'-end (probe)

GGATATCCTTTTAATATATGCTAAATGAATAGATTCTCACTATGTAAGTCACCAGGTATGTATGTATATATATATATATATACATACGCATTGGCAACCAACTAGTAAGAGTATAGAGCGAGGCGTAATACGCGATGTTACTGACAATGAAAATCAAACAAAGAAATTCAACTTTTTTAAGTCTAGCCAAAATGTGTATGAGGGGAAGGGACAAAATTCACAGGGGTTAAAGTAACATATG (double strand) [PB]
binding [1]: no binding

B1: PW (dsDNA)
DNA 1: CATTTTGCCTTGCGCTATCTCCCTCAACGAAAAG
DNA 2: CTTTTCGTTGAGGGAGATAGCGCAAGGCAAAATG
binding result (GST-Gaf1 [2]): binds

B2: PM (dsDNA)
DNA 1: B1 DNA 1 with T16A, A17T, C19G
DNA 2: B1 DNA 2 with G16C, T18A, A19T
binding result (GST-Gaf1 [3]): no binding
